Literature values in US20160354395A1, “INFANT FORMULAS CONTAINING A 2-FUCOSYLATED OLIGOSACCHARIDE FOR TREATMENT OR PREVENTION OF INFLUENZA INFECTION” (NESTEC S.A., priority 2013, published 2016).

System: influenza virus
Settings: mice

B1: Lactoferrin: a protein of the transferrin family, present in milk; given in the diet at 25 g/kg (protein, UniProt P24627 20-708, looked up)
Lactotransferrin: APRKNVRWCTISQPEWFKCRRWQWRMKKLGAPSITCVRRAFALECIRAIAEKKADAVTLDGGMVFEAGRDPYKLRPVAAEIYGTKESPQTHYYAVAVVKKGSNFQLDQLQGRKSCHTGLGRSAGWIIPMGILRPYLSWTESLEPLQGAVAKFFSASCVPCIDRQAYPNLCQLCKGEGENQCACSSREPYFGYSGAFKCLQDGAGDVAFVKETTVFENLPEKADRDQYELLCLNNSRAPVDAFKECHLAQVPSHAVVARSVDGKEDLIWKLLSKAQEKFGKNKSRSFQLFGSPPGQRDLLFKDSALGFLRIPSKVDSALYLGSRYLTTLKNLRETAEEVKARYTRVVWCAVGPEEQKKCQQWSQQSGQNVTCATASTTDDCIVLVLKGEADALNLDGGYIYTAGKCGLVPVLAENRKSSKHSSLDCVLRPTEGYLAVAVVKKANEGLTWNSLKDKKSCHTAVDRTAGWNIPMGLIVNQTGSCAFDEFFSQSCAPGADPKSRLCALCAGDDQGLDKCVPNSKEKYYGYTGAFRCLAEDVGDVAFVKNDTVWENTNGESTADWAKNLNREDFRLLCLDGTRKPVTEAQSCHLAVAPNHAVVSRSDRAAHVKQVLLHQQALFGKNGKNCPDKFCLFKSETKNLLFNDNTECLAKLGGRPTYEEYLGTEYVTAIANLKKCSTSPLLEACAFLTR
number of infiltrated leukocytes recovered from bronchoalveolar lavage fluid (day 6): significantly lower | lung consolidation score (day 6 after infection, vs control mice given water): significantly lower
